Consider one substance from publication PMC8101287.

The test concerns the target human LAG‐3 on JRT LAG‐3^+ C8 cells (human) (UniProt P18627). The test is described as follows: flow cytometry on cells.

human LAG‐3 on JRT LAG‐3^+ C8 cells (human), sequence (P18627 23-525): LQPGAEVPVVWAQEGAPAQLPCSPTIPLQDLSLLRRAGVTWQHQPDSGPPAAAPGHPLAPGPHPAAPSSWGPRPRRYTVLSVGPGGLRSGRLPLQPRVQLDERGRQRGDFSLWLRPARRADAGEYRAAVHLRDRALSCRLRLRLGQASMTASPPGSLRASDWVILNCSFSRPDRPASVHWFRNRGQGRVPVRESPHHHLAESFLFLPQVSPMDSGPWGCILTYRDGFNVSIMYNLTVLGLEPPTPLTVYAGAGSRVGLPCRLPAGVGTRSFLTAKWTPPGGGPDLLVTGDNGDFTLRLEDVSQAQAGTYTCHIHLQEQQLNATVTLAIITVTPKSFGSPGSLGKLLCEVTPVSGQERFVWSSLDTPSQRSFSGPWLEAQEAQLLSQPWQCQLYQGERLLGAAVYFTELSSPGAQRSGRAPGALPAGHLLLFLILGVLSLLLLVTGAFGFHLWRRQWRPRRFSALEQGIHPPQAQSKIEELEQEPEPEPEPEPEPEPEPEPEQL

“PE labeled pHLA‐DR1 dextramers loaded with HA_(306‐318) peptide (peptide-MHC)” displayed a percent of cells with detectable multimer staining of 19%.
